Data: the supplement of paper PMC7125110
± gives the standard error. For some assays here: This sample holds only a part of the variants without activity.

B1: glmS ribozyme (parent)
chain: AUAAAAGCGCCAGAACUACAGAAAUGUAGUUGACGAGGAGGAGGUUUAUCGAAUUUUCGGCGGAUGCCUCCAAA

Legend:
Details in all cases: with glucosamine-6-phosphate
glucosamine-6-phosphate [1] = variants of: B1; experiment: kcat; higher = faster cleavage; RNA array
Outline: (§1)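 Using a hybridised Cy3 probe at 37 °C, barcoded ribozyme variants transcribed in situ by E. coli RNA polymerase on sequenced MiSeq chips were monitored across tiles imaged over ~14 h. The flow contained glucosamine-6-phosphate from 40 μM to 10 mM in HEPES/KCl/Mg(OAc)2 buffer. Signals were normalised to baseline and to non-cleaving reference variants before per-tile medians were fit to one- or two-exponential decays to yield kobs. Weighted Michaelis–Menten fits across concentrations gave kcat and KM.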

glucosamine-6-phosphate [2] = variants of: B1; experiment: self-cleavage kobs at 40 uM GlcN6P; higher = faster cleavage; RNA array
Outline: as §1

glucosamine-6-phosphate [3] = variants of: B1; experiment: self-cleavage kobs at 160 uM GlcN6P; higher = faster cleavage; RNA array
Outline: as §1

glucosamine-6-phosphate [4] = variants of: B1; experiment: self-cleavage kobs at 640 uM GlcN6P; higher = faster cleavage; RNA array
Outline: as §1

glucosamine-6-phosphate [5] = variants of: B1; experiment: self-cleavage kobs at 2500 uM GlcN6P; higher = faster cleavage; RNA array
Outline: as §1

glucosamine-6-phosphate [6] = variants of: B1; experiment: self-cleavage kobs at 10000 uM GlcN6P; higher = faster cleavage; RNA array
Outline: as §1

glucosamine-6-phosphate [7] = variants of: B1; experiment: KM; higher = weaker cofactor use; RNA array
Outline: as §1

Variant | kcat (glucosamine-6-phosphate [1]) | self-cleavage kobs at 40 uM GlcN6P (glucosamine-6-phosphate [2]) | self-cleavage kobs at 160 uM GlcN6P (glucosamine-6-phosphate [3]) | self-cleavage kobs at 640 uM GlcN6P (glucosamine-6-phosphate [4]) | self-cleavage kobs at 2500 uM GlcN6P (glucosamine-6-phosphate [5]) | self-cleavage kobs at 10000 uM GlcN6P (glucosamine-6-phosphate [6]) | KM (glucosamine-6-phosphate [7])
AUAAAAGCGCCAGUACUACAGAAAUGUAGUUGACGAGGGGGAGGUUUAUCGAAUUUUCGGCGGAUGCCUCCAAA | 0.0158 ± 0.0077 s⁻¹ | 0.000381 ± 6.3e-05 s⁻¹ | 0.000604 ± 0.00015 s⁻¹ | 0.00493 ± 0.0011 s⁻¹ | 0.00644 ± 0.0013 s⁻¹ | 0.0136 ± 0.0025 s⁻¹ | 
AUAAAAGCGCCAGAAAUACAGAAAUGUAGUUGACGAGGAGGAGGUUUAUCGAAUUUUCGGCGCAUGCCUCCAAA | < 1e-05 s⁻¹ |  | < 1e-05 s⁻¹ |  |  |  | 
AUAAAAGCGCCAGAACUACAGAAAUGUAGUUGACGAGGAGGAGGUUUAUUGAAUUUUCGGCGGAUGCCUUCAAA | 4.57e-05 ± 5.9e-07 s⁻¹ |  |  | 3.85e-05 ± 1.4e-05 s⁻¹ | 4.25e-05 ± 8.3e-06 s⁻¹ | 4.51e-05 ± 7.2e-06 s⁻¹ | 154 ± 18 µM
AUAAAAGCGCCAGCACUACAGAAAUGUAGUUGACGAGGAGGAGGUUUAUCGAAUUUUCGGCGGAUGCUUCCAAA | 0.000506 ± 4e-05 s⁻¹ |  | 6.97e-05 ± 2.3e-05 s⁻¹ | 0.00015 ± 2.1e-05 s⁻¹ | 0.000305 ± 6.4e-05 s⁻¹ | 0.000447 ± 5e-05 s⁻¹ | 1460 ± 250 µM
AUAAAAGCGCCAGAACUACAGAAAUGUAAUUGACGAGGAGGAGGUUUAUCGAAUGUUCGGCGGAUGCCUCCAAA | 0.00132 ± 0.00029 s⁻¹ |  | 5.56e-05 ± 1.3e-05 s⁻¹ | 0.000305 ± 6.3e-05 s⁻¹ | 0.000622 ± 0.00011 s⁻¹ | 0.000954 ± 0.00021 s⁻¹ | 2980 ± 960 µM
AUAAAAGCGCCAGUACUACAGAAAUGUAAUUGACGAGGAGGAGGUUUAUCGAAUUUUCGGCGGAUGCCUCCAAA | 0.00088 ± 5.1e-05 s⁻¹ |  | 4.16e-05 ± 1e-05 s⁻¹ | 0.000137 ± 1.7e-05 s⁻¹ | 0.000368 ± 5.1e-05 s⁻¹ | 0.000665 ± 0.00011 s⁻¹ | 3420 ± 290 µM
AUAAAAGCGCCAGAACUACAGAAAUGUAGUUGACGAGGAGGAGGUCUAUCGAAUUUUCGGCGGAUGCCUCUAAA | 0.00342 ± 0.00056 s⁻¹ | 0.000102 ± 1.5e-05 s⁻¹ | 0.000375 ± 5.8e-05 s⁻¹ | 0.00126 ± 0.00019 s⁻¹ | 0.00309 ± 0.00044 s⁻¹ | 0.00266 ± 0.00038 s⁻¹ | 1240 ± 290 µM
AUAAAAGCGCCAGAACUACAGAAAUGUAGUUGACGAGGAGGAGGUUUAUUGAAUUUUCGGCGUAUGCCUCCAAA | 1.75e-05 ± 7.2e-06 s⁻¹ | < 1e-05 s⁻¹ |  |  |  |  | 
AUAAAAGCGCCAGAACUACAGAAAUGUAGUUGACGAGGAGGGGGUUUAUCGAAUUUUCGGCGGGUGCCUCCAAA | 0.024 ± 0.0071 s⁻¹ | 0.000694 ± 0.00014 s⁻¹ | 0.0024 ± 0.00059 s⁻¹ | 0.00754 ± 0.0017 s⁻¹ | 0.0422 ± 0.015 s⁻¹ | 0.0194 ± 0.0055 s⁻¹ | 1370 ± 520 µM
AUAAAAGCGCCAGAACUACAGAAAUGUAUUUGACGAAGAGGAGGUUUAUCGAAUUUUCGGCGGAUGCCUCCAAA | 0.000503 ± 4.3e-05 s⁻¹ |  |  | 8.23e-05 ± 1.1e-05 s⁻¹ | 0.000188 ± 3.4e-05 s⁻¹ | 0.000383 ± 4.6e-05 s⁻¹ | 3470 ± 490 µM
AUAAAAGCGCCAGAACUACAGAAAUGUAGUUGACGAGGAGGAGGUUUAUCGAAUUUUAGGCGGAUGCCUCAAAA | 5.74e-05 ± 1e-05 s⁻¹ |  |  | 3.29e-05 ± 1.3e-05 s⁻¹ | 7.33e-05 ± 1.5e-05 s⁻¹ | 4.88e-05 ± 9.7e-06 s⁻¹ | 
AUAAAAGCGCCAGAACUACAGAAAUGUAGUUGACGAGGAGGAGGUUUAUUGAAUUUGCGGCGGAUGCCUCCAAA | < 1e-05 s⁻¹ |  |  | < 1e-05 s⁻¹ |  |  | 
AUAAAAGCGCCAGAACUACAGAAAUGUAGUUGACGAGGAGGAGGUUUAUCGAAUUUUCGCCGGAUGCAUCCAAA | 1.32e-05 ± 4.3e-06 s⁻¹ | < 1e-05 s⁻¹ |  |  |  | < 1e-05 s⁻¹ | 
AUAAAAGCGCCUGAACUACAGAAAUGUAGUUGACGAGGAGGAGGUUGAUCGAAUUUUCGGCGGAUGCCUGCAAA | 0.000218 ± 4.7e-05 s⁻¹ | 6.36e-05 ± 1.3e-05 s⁻¹ | 7.51e-05 ± 1.5e-05 s⁻¹ | 0.000234 ± 3.9e-05 s⁻¹ | 0.000217 ± 3.7e-05 s⁻¹ | 0.000201 ± 3.3e-05 s⁻¹ | 
AUAAAAGCGCCAGAACUACAGAAAUGUAGUUGCCGAGGAGGAGGUUUUUCGAAUUUUCGGCGGAUGCCUCCAAA | < 1e-05 s⁻¹ | < 1e-05 s⁻¹ | < 1e-05 s⁻¹ |  |  |  | 
AUAAAAGCGCCUGAACUACAGAAAUGUAGUUGACGAGGAGGAGGUUUAUCGAAUUUUCGGCGGAUUCCUCCAAA | 0.00516 ± 0.00082 s⁻¹ | 0.000146 ± 1.8e-05 s⁻¹ | 0.000589 ± 0.0001 s⁻¹ | 0.00128 ± 0.00014 s⁻¹ | 0.00319 ± 0.00044 s⁻¹ | 0.00479 ± 0.00055 s⁻¹ | 1550 ± 380 µM
